Results: patent US20210381002A1 (CORNELL UNIVERSITY, published 2021)

Columns and labels:
[1] = target: the molecule itself; assay: Sephacryl size exclusion column fractions, anti-HA Western (self-association, tetramer formation)
Description: FIGS. 6A-B. Modified SOD3 construct. A) Secretion of the modified SOD3 constructs. Western (anti-HA tag) of supernatant of 293T cells transfected with: lane 1—mock; lane 2—unmodified HA tagged SOD3; lane 3—SOD3hd⁻. Only SOD3hd⁻ is in the supernatant. […] Approximate MW are calculated from column specifications.
Two modifications were made in a single SOD3 variant (hSOD3hd⁻), including a deletion of residues 50-59 replaced with an in frame copy of the residue segment from 74-80, and a deletion of residues 212-240, the heparin-binding domain. […] Intravenous administration to Balb/c mice led to vector DNA in liver and lung (liver 50-fold higher) and SOD activity in serum (FIG. 7D-F). LEX 5c, LEX 5d. Based on the in vitro and in vivo functional data of LEX 5a and LEX 5b, LEX 5c and LEX 5d were generated to express both catalase and SOD3 modified monomers. Based on expressing 2 genes in 1 AAV construct (De et al., 2008; Wang et al., 2010; Watanabe et al., 2010; Mao et al., 2011; Rosenberg et al., 2012; Hicks et al., 2012; Xie et al., 2014; Hicks et al., 2015; Pagovich et al., 2016; Liu et al., 2016), both […] use a single promoter, with the 2 modified cDNA separated by a furin 2A cleavage site which directs cleavage of the resulting precursor protein to generate the 2 function proteins. […]

[2] = target: the molecule itself; assay: Bis-Tris gel of 293T supernatant (self-association, tetramer formation)
Description: FIG. 14. Assessment of supernatants of catalase constructs for monomeric and multimeric catalase separation. Samples were assessed on Bis-Tris gel, blotted and probed with anti-catalase antibody (ABCAM: ab88067); predicted band sizes, 60 kDa for monomer and 240 kDa for tetramer, aAll 3 constructs secreted only the monomeric construct.
Three modifications of the human catalase sequence were assessed: hCatNT⁻, hCatWL⁻ and hCatNT⁻WL⁻. […] However, of the 3 constructs, only the wrapping loop domain deletion (hCatWD⁻) retained catalase activity (FIG. 5B). […] Intravenous administration to mice led to detection of hCatWD⁻ DNA in the liver and lung (typical for AAVrh.10 vectors) (Chiuchiolo et al., 2013), and importantly, easily detectable human catalase activity in serum, e.g., LEX 5a generates a secreted, functional catalase monomer (FIG. 7A-C).

B1: modified human superoxide dismutase 3 (hSOD3hd^-): residues 50-59 replaced with a copy of 74-80, and heparin-binding domain residues 212-240 deleted (enzyme)
chain: WTGEDSAEPNSDSAEWIRDMYAKVTEIWQEVATLDAAQHAACQVQPSATLDAAQPRVTGVVLFRQLAPRAKLDAFFALEGFPTEPNSSSRAIHVHQFGDLSQGCESTGPHYNPLAVPHPQHPGDFGNFAVRDGSLWRYRAGLAASLAGPHSIVGRAVVVHAGEDDLGRGGNQASVENGNAGRRLACCVVG
notes: also called expression product of LEX 5b; not shown: Hemagglutinin (HA) tag used for detection with anti-HA
B1: no binding [1].

B2: human catalase monomer with a 20 amino acid deletion from the wrapping loop domain (hCatWL^-) (enzyme)
chain: ADSRDPASDQMQHWKEQRAAQKADVLTTGAGNPVGDKLNVITVGPRGPLLVQDVVFTDEMAHFDRERIPERVVHAKGAGAFGYFEVTHDITKYSKAKVFEHIGKKTPIAVRFSTVAGESGSADTVRDPRGFAVKFYTEDGNWDLVGNNTPIFFIRDPILFPSFIHSQKRNPQTHLKDPDMVWDFWSLRPESLHQVSFLFSDRGIPDGHRHMNGYGSHTFKLVNANGEAVYCKFHYKTDQGIKNLSVEDAARLSQEDPDYGIRDLFNAIATGKYPSWTFYIQVMTFNQAETFPFNPFDLTKVWPHKDYPLIPVGKLVLNRNPVNYFAEVEQIAFDPSNMPPGIEASPDKMLQGRLFAYPDTHRHRLGPNYLHIPVNCPYRAPNYYPNSFGAPEQQPSALEHSIQYSGEVRRFNTANDDNVTQVRAFYVNVLNEEQRKRLCENIAGHLKDAQIFIQKKAVKNFTEVHPDYGSHIQALLDKYNAEKPKNAIHTFVQSGSHLAAREKANLYPYDVPDYA
notes: also called hCatWD^-
B2: no binding [2].
